T1: FcγRIIa R (human, UniProt P12318 34-217)
T1 construct: extracellular domain; also called FcgRIIa R type; 2aR
T1 sequence (looked up): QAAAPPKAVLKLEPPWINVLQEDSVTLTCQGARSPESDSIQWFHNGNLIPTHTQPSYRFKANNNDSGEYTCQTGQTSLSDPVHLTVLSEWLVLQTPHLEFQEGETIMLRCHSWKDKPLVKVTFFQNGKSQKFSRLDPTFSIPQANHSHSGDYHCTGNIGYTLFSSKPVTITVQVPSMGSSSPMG


Molecular target: T1, FcγRIIa R
Test: SPR (Biacore), captured antibody, FcγR as analyte; relative binding activity

Binder	He/Con_2aR
GpH7-A5/GpH7-B3 variant N325_03V/GpL16-k0 (antibody, human IgG1, kappa, also called He Ab N325_03V) heavy 1: not shown heavy 2: not shown light: DIVMTQSPLSLPVTPGEPASISCQASESLVHSNRNTYLHWYLQKPGQSPQLLIYKVSNRFSGVPDRFSGSGSGTDFTLKISRVEAEDVGVYYCSQNTHVPPTFGQGTKVEIERTVAAPSVFIFPPSDEQLKSGTASVVCLLNNFYPREAKVQWKVDNALQSGNSQESVTEQDSKDSTYSLSSTLTLSKADYEKHKVYACEVTHQGLSSPVTKSFNRGEC	108 % (GpH7-A5/GpH7-B3/GpL16-k0 = 100)
GpH7-A5/GpH7-B3 variant N325_08L/GpL16-k0 (antibody, human IgG1, kappa, also called He Ab N325_08L) heavy 1: not shown heavy 2: not shown light: DIVMTQSPLSLPVTPGEPASISCQASESLVHSNRNTYLHWYLQKPGQSPQLLIYKVSNRFSGVPDRFSGSGSGTDFTLKISRVEAEDVGVYYCSQNTHVPPTFGQGTKVEIERTVAAPSVFIFPPSDEQLKSGTASVVCLLNNFYPREAKVQWKVDNALQSGNSQESVTEQDSKDSTYSLSSTLTLSKADYEKHKVYACEVTHQGLSSPVTKSFNRGEC	144 % (GpH7-A5/GpH7-B3/GpL16-k0 = 100)
GpH7-A5/GpH7-B3 variant N325_06M/GpL16-k0 (antibody, human IgG1, kappa, also called He Ab N325_06M) heavy 1: not shown heavy 2: not shown light: DIVMTQSPLSLPVTPGEPASISCQASESLVHSNRNTYLHWYLQKPGQSPQLLIYKVSNRFSGVPDRFSGSGSGTDFTLKISRVEAEDVGVYYCSQNTHVPPTFGQGTKVEIERTVAAPSVFIFPPSDEQLKSGTASVVCLLNNFYPREAKVQWKVDNALQSGNSQESVTEQDSKDSTYSLSSTLTLSKADYEKHKVYACEVTHQGLSSPVTKSFNRGEC	152 % (GpH7-A5/GpH7-B3/GpL16-k0 = 100)
GpH7-A5/GpH7-B3 variant N325_04F/GpL16-k0 (antibody, human IgG1, kappa, also called He Ab N325_04F) heavy 1: not shown heavy 2: not shown light: DIVMTQSPLSLPVTPGEPASISCQASESLVHSNRNTYLHWYLQKPGQSPQLLIYKVSNRFSGVPDRFSGSGSGTDFTLKISRVEAEDVGVYYCSQNTHVPPTFGQGTKVEIERTVAAPSVFIFPPSDEQLKSGTASVVCLLNNFYPREAKVQWKVDNALQSGNSQESVTEQDSKDSTYSLSSTLTLSKADYEKHKVYACEVTHQGLSSPVTKSFNRGEC	120 % (GpH7-A5/GpH7-B3/GpL16-k0 = 100)
GpH7-A5/GpH7-B3 variant L328_10E/GpL16-k0 (antibody, human IgG1, kappa, also called He Ab L328_10E) heavy 1: not shown heavy 2: not shown light: DIVMTQSPLSLPVTPGEPASISCQASESLVHSNRNTYLHWYLQKPGQSPQLLIYKVSNRFSGVPDRFSGSGSGTDFTLKISRVEAEDVGVYYCSQNTHVPPTFGQGTKVEIERTVAAPSVFIFPPSDEQLKSGTASVVCLLNNFYPREAKVQWKVDNALQSGNSQESVTEQDSKDSTYSLSSTLTLSKADYEKHKVYACEVTHQGLSSPVTKSFNRGEC	105 % (GpH7-A5/GpH7-B3/GpL16-k0 = 100)
GpH7-A5/GpH7-B3 variant L235_09D/GpL16-k0 (antibody, human IgG1, kappa, also called He Ab L235_09D) heavy 1: not shown heavy 2: not shown light: DIVMTQSPLSLPVTPGEPASISCQASESLVHSNRNTYLHWYLQKPGQSPQLLIYKVSNRFSGVPDRFSGSGSGTDFTLKISRVEAEDVGVYYCSQNTHVPPTFGQGTKVEIERTVAAPSVFIFPPSDEQLKSGTASVVCLLNNFYPREAKVQWKVDNALQSGNSQESVTEQDSKDSTYSLSSTLTLSKADYEKHKVYACEVTHQGLSSPVTKSFNRGEC	101 % (GpH7-A5/GpH7-B3/GpL16-k0 = 100)

More lines, now with the values ahead:

He/Con_2aR	Binder
108 % (GpH7-A5/GpH7-B3/GpL16-k0 = 100)	GpH7-A5/GpH7-B3 variant L234_20W/GpL16-k0 (antibody, human IgG1, kappa, also called He Ab L234_20W) heavy 1: not shown heavy 2: not shown light: DIVMTQSPLSLPVTPGEPASISCQASESLVHSNRNTYLHWYLQKPGQSPQLLIYKVSNRFSGVPDRFSGSGSGTDFTLKISRVEAEDVGVYYCSQNTHVPPTFGQGTKVEIERTVAAPSVFIFPPSDEQLKSGTASVVCLLNNFYPREAKVQWKVDNALQSGNSQESVTEQDSKDSTYSLSSTLTLSKADYEKHKVYACEVTHQGLSSPVTKSFNRGEC
143 % (GpH7-A5/GpH7-B3/GpL16-k0 = 100)	GpH7-A5/GpH7-B3 variant N325_13S/GpL16-k0 (antibody, human IgG1, kappa, also called He Ab N325_13S) heavy 1: not shown heavy 2: not shown light: DIVMTQSPLSLPVTPGEPASISCQASESLVHSNRNTYLHWYLQKPGQSPQLLIYKVSNRFSGVPDRFSGSGSGTDFTLKISRVEAEDVGVYYCSQNTHVPPTFGQGTKVEIERTVAAPSVFIFPPSDEQLKSGTASVVCLLNNFYPREAKVQWKVDNALQSGNSQESVTEQDSKDSTYSLSSTLTLSKADYEKHKVYACEVTHQGLSSPVTKSFNRGEC
117 % (GpH7-A5/GpH7-B3/GpL16-k0 = 100)	GpH7-A5/GpH7-B3 variant L328_02A/GpL16-k0 (antibody, human IgG1, kappa, also called He Ab L328_02A) heavy 1: not shown heavy 2: not shown light: DIVMTQSPLSLPVTPGEPASISCQASESLVHSNRNTYLHWYLQKPGQSPQLLIYKVSNRFSGVPDRFSGSGSGTDFTLKISRVEAEDVGVYYCSQNTHVPPTFGQGTKVEIERTVAAPSVFIFPPSDEQLKSGTASVVCLLNNFYPREAKVQWKVDNALQSGNSQESVTEQDSKDSTYSLSSTLTLSKADYEKHKVYACEVTHQGLSSPVTKSFNRGEC
114 % (GpH7-A5/GpH7-B3/GpL16-k0 = 100)	GpH7-A5/GpH7-B3 variant L235_04F/GpL16-k0 (antibody, human IgG1, kappa, also called He Ab L235_04F) heavy 1: not shown heavy 2: not shown light: DIVMTQSPLSLPVTPGEPASISCQASESLVHSNRNTYLHWYLQKPGQSPQLLIYKVSNRFSGVPDRFSGSGSGTDFTLKISRVEAEDVGVYYCSQNTHVPPTFGQGTKVEIERTVAAPSVFIFPPSDEQLKSGTASVVCLLNNFYPREAKVQWKVDNALQSGNSQESVTEQDSKDSTYSLSSTLTLSKADYEKHKVYACEVTHQGLSSPVTKSFNRGEC
101 % (GpH7-A5/GpH7-B3/GpL16-k0 = 100)	GpH7-A5/GpH7-B3 variant N325_15Y/GpL16-k0 (antibody, human IgG1, kappa, also called He Ab N325_15Y) heavy 1: not shown heavy 2: not shown light: DIVMTQSPLSLPVTPGEPASISCQASESLVHSNRNTYLHWYLQKPGQSPQLLIYKVSNRFSGVPDRFSGSGSGTDFTLKISRVEAEDVGVYYCSQNTHVPPTFGQGTKVEIERTVAAPSVFIFPPSDEQLKSGTASVVCLLNNFYPREAKVQWKVDNALQSGNSQESVTEQDSKDSTYSLSSTLTLSKADYEKHKVYACEVTHQGLSSPVTKSFNRGEC

Source: patent US20150344570A1 (published 2015)
